Assay results: patent US20050049402A1 (Amgen, published 2005)
Numbering of substitutions follows the chain as printed.

T1: p55-hFc (R&D) (UniProt P19438 30-211, limits assumed)
T1 construct: Bought reagent; also called TNFα receptor p55-hFc
T1 sequence (looked up): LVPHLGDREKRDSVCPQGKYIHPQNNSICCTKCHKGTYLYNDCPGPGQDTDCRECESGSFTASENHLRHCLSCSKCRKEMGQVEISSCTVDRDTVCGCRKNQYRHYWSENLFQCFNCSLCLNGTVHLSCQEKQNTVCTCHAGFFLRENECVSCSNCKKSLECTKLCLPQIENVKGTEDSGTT

T2: p75-hFc construct (R&D Systems) (UniProt P20333 23-257)
T2 construct: Described as similar to etanercept (Enbrel); also called p75s-hFc; Etanercept surrogate
T2 sequence (looked up): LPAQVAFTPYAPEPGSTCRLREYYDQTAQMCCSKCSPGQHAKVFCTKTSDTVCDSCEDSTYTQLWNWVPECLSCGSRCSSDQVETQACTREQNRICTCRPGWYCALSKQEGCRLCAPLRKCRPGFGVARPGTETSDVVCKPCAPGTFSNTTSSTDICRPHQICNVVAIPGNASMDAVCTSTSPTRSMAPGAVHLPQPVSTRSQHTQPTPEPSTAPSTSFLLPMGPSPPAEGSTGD

B1: 250 (antibody, human IgG1, V domains shown)
VH: EVQLVESGGGLIQPGGSLRLSCAASGFTVSSNYMSWVRQAPGKGLEWVSVIYSGDRTYYADSVKGRFTISRDNSKNTLYLQMNSLRAEDTAVYYCARGEGGFDYWGQGTLVTVSS
VL: EIVMTQSPATLSVSPGERATLSCRASQSVTSNLAWYQQKPGQAPRLLIHGASIRATGLPARFSGSGSGTEFTLTISSLQSEDFAVYYCQQYNYWWTFGQGTKVEIK
notes: XENOMAX derived, recombinant human IgG1 kappa; also called 250Ab; SC250
B2: 269 (antibody, human IgG1, V domains shown)
VH: B1 VH with G26E, S31R
VL: B1 VL with T30S
notes: XENOMAX derived, recombinant human IgG1 kappa; also called 269Ab; SC269
B3: H/M PvuII chimeric TNFα (human 1-125, murine 126-157) (ligand)
chain: VRSSSRTPSDKPVAHVVANPQAEGQLQWLNRRANALLANGVELRDNQLVVPSEGLYLIYSQVLFKGQGCPSTHVLLTHTISRIAVSYQTKVNLLSAIKSPCQRETPEGAEAKPWYEPIYLGGVFQLEKGDQLSAEVNLPKYLDFAESGQVYFGVIAL
notes: also called Hu/M PVu11
B4: H/M HincII chimeric TNFα (human 1-91, murine 92-157) (ligand)
chain: B3 chain with I97V, Q102P, R103K, E104D, A111L
notes: Murine range printed 92-157 (human-aligned); also called Hu/M Hin C l1
B5: H/M BglI chimeric TNFα (human 1-36, murine 37-157) (ligand)
chain: VRSSSRTPSDKPVAHVVANPQAEGQLQWLNRRANALLANGMDLKDNQLVVPADGLYLVYSQVLFKGQGCPDYVLLTHTVSRFAISYQEKVNLLSAVKSPCPKDTPEGAELKPWYEPIYLGGVFQLEKGDQLSAEVNLPKYLDFAESGQVYFGVIAL
notes: Murine range is printed as 37-157 in human-aligned numbering; also called H/MBgl1; Hu/MBgl1
B6: Rabbit R014 Fab (Fab, V domains shown)
VH: QSLEESGGRLVTPGTPLTLTCTVSGIDLSSNTMGWFRRAPGKGLEWIGIIISSGTTYYASWVKGRFTISKTSTTVDLKITRPTTEDTATYFCARGWYEFNLWGPGTLVTVSS
VL: DVVMTQTPASVEAAVGGTVTIKCQASENIDILLAWYQQKVGQPPKLLIYRASKLASGAPSRFSGSGSGTEFTLTISDLECGDAATYYCQSNVGSTARSSYGNAFGGGTEVVVK
notes: Fab made by papain cleavage of R014
B7: 299v1 (antibody, human IgG1, V domains shown)
VH: QVQLVESGGGVVQPGRSLRLSCAASGFTFSSYDMHWVRQAPGKGLEWVAVIWSDGSIKYYADSVKGRFTISRDNSKNTLYLQMNSLRAEDTAVYYCAREVESAMGGFYYNGMDVWGQGATVTVSS
VL: DIQMTQSPSSLSASVGDRVTITCRASQGIRIDLGWYQQKPGKAPKRLIYAASTLQSGVPSRFSGSGSGTEFIFTISSLQPEDFASYYCLQHKSYPLTFGGGTKVEIK
notes: XENOMAX derived, recombinant human IgG1 kappa; also called SC299V1
B8: 282 (antibody, human IgG1, V domains shown)
VH: QVQLVESGGGVVQPGRSLRLSCAASGFTVSSYGMHWVRQAPGKGLEWVAVIWSNGSNKYYADSVKGRFTISRDNSKNTLYLQMNSLRAEDTAVYYCARDNGVYVGYAYYYGMDVWGQGTTVTVSS
VL: B7 VL with I31N, T53S, Q55H, I72T, F73L, S85T, K92N, L96W, G100Q
notes: XENOMAX derived, recombinant human IgG1 kappa; also called 282 Ab; SC282
B9: 4.17 g1 (antibody, human IgG1, V domains shown)
VH: QVQLVESGGGVVQPGRSLRLSCTTSGFTFSNYGMHWVRQAPGKGLEWVAVIWYDGSIKYYVDSVKGRFTISRDNSKNTLYLQMNSLRAEDTAVYYCAREKDCGGDCYSHYGMDVWGQGTTVTVSS
VL: B7 VL with I31N, T53S, I72T, F73L, S85T, K92M, Y94L
B10: 313 (antibody, human IgG1, V domains shown)
VH: QVQLVESGGGVVQPGRSLRLSCAASGFTFSNHDIHWVRQAPGKGLEWVAVIWSDGSNKYYADSVKGRFTISRDNSKNTLYLQMNSLRAEDTAVYYCAREKMATIKGYYYYGMDVWGQGTTVTVSS
VL: B7 VL with I31N, T53S, Q55E, T69P, I72T, F73L, S85T, K92N, K107Q
notes: Recombinant human IgG1 kappa; also called 313 Ab; SC313
B11: 291 (antibody, human IgG1, V domains shown)
VH: QVQLVESGGSVVQPGRSLRLSCAASGFTFSNYGIHWVRQAPGKGLEWVAVIWSDGSNKYYADSVKGRFTISRDNSKNTLYLQMNSLRAEDTAVYYCARELPNSGSYSGYYYYYGMDVWGQGTTVTVSS
VL: B7 VL with I31N, T53S, I72T, F73L, S85T, K92C, S93C
notes: XENOMAX derived, recombinant human IgG1 kappa; also called 291 Ab; SC291
B12: 3.2 g1 (antibody, human IgG1, V domains shown)
VH: EVQLVQSGAEVKKPGESLKISCKTSEYSFTSYWIGWVRQMPGKGLEWMGIIYLGDSDTRYSPSFQGQVTISADKSISTAYLQWSSLKASDTAMYYCARSNWGLDYWGQGTLVTVSS
VL: QSVLTQPPSVSGAPGQRVTISCTGSSSNIGAGYDVHWYQQFPGTAPKLLIQGNSNRPSGVPDRFSGSKSGTSASLAITGLQAEDEADYYCQSYDSSLSGSVFGGGTKLTVL

What was measured:
[1] = target: T3, human TNFα (Tumor Necrosis Factor-alpha), soluble (human, UniProt P01375 77-233); test: ELISA on chimeric/mutant TNFα
T3 construct: Recombinant (R&D 210-TA/CF) in screens; biotinylated in the limited antigen assay; also called hTNFα; H-TNFα
Source text: (§1) In order to define the binding site for different antibodies, a number of residues of hTNFα were mutated using site directed mutagenesis. A panel of antibodies was screened for binding by an ELISA assay. […] Histidine at position 73 was deleted, an example is illustrated in Table 19.

[2] = target: human TNFα R31Q, Q27E mutant (human, UniProt P01375 77-233); test: ELISA on chimeric/mutant TNFα
Source text: as §1

human TNFα R131Q mutant = human TNFα R131Q mutant (human, UniProt P01375 77-233); test: ELISA on chimeric/mutant TNFα
Source text: as §1

[3] = target: T4, human TNFα with histidine 73 deleted (human, UniProt P01375 77-233); test: ELISA on chimeric/mutant TNFα
T4 construct: Deletion of His73 written as two joined ranges; also called His 73del
Source text: as §1

human TNFα R31Q mutant = human TNFα R31Q mutant (human, UniProt P01375 77-233); test: ELISA on chimeric/mutant TNFα
Source text: as §1

p55-hFc (R&D) = target: T1, p55-hFc (R&D); test: receptor-Fc binding to TNFα constructs
[4] = target: T2, p75-hFc construct (R&D Systems); test: receptor-Fc binding to TNFα constructs
[5] = target: T3, human TNFα (Tumor Necrosis …); test: KinExA, Fab from papain cleavage
Experimental: (§2) The kinetic measurements of the anti-TNFα antibodies were evaluated using KinExA® and BIACORE® technologies. The KinExA® method involves solution-based determination of formal affinity measurements at equilibrium. To measure the binding kinetics of each human anti-TNFα antibody, two experiments in replicates of three were performed. In both experiments a known concentration of antigen was titrated and a different antibody concentration was added to each antigen titration and allowed to reach binding equilibrium. […] The results were analyzed by dual curve analysis. […] In addition, to negate the possibility of avidity effects, Fab fragments were generated by papain cleavage and the kinetic analysis was repeated (see Table 24).

[6] = target: T3, human TNFα (Tumor Necrosis …); test: KinExA, TNFα counted as one trimer
Experimental: as §2

[7] = target: T3, human TNFα (Tumor Necrosis …); test: KinExA, TNFα counted as three monomers
Experimental: as §2

[8] = target: T3, human TNFα (Tumor Necrosis …); test: cell-based or functional assay
[9] = target: B5; test: ELISA on chimeric/mutant TNFα
Source text: as §1

[10] = target: B3; test: ELISA on chimeric/mutant TNFα
Source text: as §1

[11] = target: B4; test: ELISA on chimeric/mutant TNFα
Source text: as §1

T4 sequence (P01375 other isoform, or with tags, fused parts or gaps): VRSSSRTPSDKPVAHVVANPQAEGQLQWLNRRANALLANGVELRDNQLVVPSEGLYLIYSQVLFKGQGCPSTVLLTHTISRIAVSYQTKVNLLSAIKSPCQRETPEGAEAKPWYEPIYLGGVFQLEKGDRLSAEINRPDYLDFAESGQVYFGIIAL

Binder: B1
binding result [1]: binds
binding result [2]: binds
binding result (human TNFα R131Q mutant): binds
binding result [3]: binds
binding result (human TNFα R31Q mutant): binds

Binder: B2
binding result [1]: binds
binding result [2]: binds
binding result (human TNFα R131Q mutant): binds
binding result [3]: binds
binding result (human TNFα R31Q mutant): binds

Binder: B3
binding result (p55-hFc (R&D)): binds
binding result [4]: binds

Binder: B4
binding result (p55-hFc (R&D)): binds
binding result [4]: binds

Binder: B5
binding result (p55-hFc (R&D)): binds
binding result [4]: binds

Binder: B6
Kd [5]: 0.638 pM
Kd (M) High [5]: 1.94e-10 M
Kd (M) Low [5]: 2.09e-15 M

Binder: B7
Kd [6]: 0.63 pM
Kd (M) High [6]: 9.2e-13 M
Kd (M) Low [6]: 4.3e-13 M
Kd [7]: 1.89 pM
Kd (M) High [7]: 2.76e-12 M
Kd (M) Low [7]: 1.29e-12 M

Binder: B8
binding result [1]: binds
binding result [2]: binds
binding result (human TNFα R131Q mutant): binds
binding result [3]: binds
binding result (human TNFα R31Q mutant): binds

Binder: B9
IC50 1 hr Pre-incubation, TNF induced apoptosis in MCF-7 cells [8]: 256 pM
IC50 18 hr Pre-incubation, TNF induced apoptosis in MCF-7 cells [8]: 40.4 pM

Binder: B10
binding result [1]: binds
binding result (human TNFα R131Q mutant): binds
binding result [3]: binds
binding result [9]: binds
binding result [10]: binds
binding result [11]: binds
binding result (human TNFα R31Q mutant): no binding

Binder: B11
binding result (human TNFα R131Q mutant): binds
binding result [9]: binds
binding result [10]: binds
binding result [11]: binds
binding result (human TNFα R31Q mutant): no binding

Binder: B12
IC50 1 hr Pre-incubation, TNF induced apoptosis in MCF-7 cells [8]: 93.8 pM
IC50 18 hr Pre-incubation, TNF induced apoptosis in MCF-7 cells [8]: 38.6 pM
